Assay results: patent US20200308290A1 (AbbVie / Abbott, published 2020)
Where two headings read alike, the source gives them in different places. One block for each binder: values may come before it.

Columns and labels:
[1] = molecular target: T1, human CD25 (recombinant soluble) (human, UniProt P01589 22-240); assay: competition ELISA on plate-coated CD25: competitor antibody titrated against biotinylated daclizumab, OD415
T1 construct: extracellular domain; bought protein; also called IL2-Rα; recombinant human IL2-Rα
T1 sequence (looked up): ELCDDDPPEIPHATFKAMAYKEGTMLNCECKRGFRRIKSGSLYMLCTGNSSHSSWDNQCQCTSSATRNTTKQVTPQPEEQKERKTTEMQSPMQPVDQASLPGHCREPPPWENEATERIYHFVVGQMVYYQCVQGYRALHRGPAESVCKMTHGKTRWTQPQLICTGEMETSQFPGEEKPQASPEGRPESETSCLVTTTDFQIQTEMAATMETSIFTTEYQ

[2] = molecular target: T1, human CD25 (recombinant soluble); assay: as above; remark: listed apart in the source
CD25 (recombinant) [3] = molecular target: T2, CD25 (recombinant) (human, UniProt P01589 22-213, limits assumed); assay: ELISA, relative to wild type; * = similar to WT
T2 construct: bought protein; also called IL2-R alpha; IL2-Rα
T2 sequence (looked up): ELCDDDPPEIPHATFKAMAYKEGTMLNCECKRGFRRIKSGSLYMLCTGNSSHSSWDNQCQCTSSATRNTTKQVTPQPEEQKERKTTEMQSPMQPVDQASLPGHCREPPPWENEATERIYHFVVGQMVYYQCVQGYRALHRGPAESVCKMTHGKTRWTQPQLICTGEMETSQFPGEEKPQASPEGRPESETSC

CD25 (recombinant) [4] = molecular target: T2, CD25 (recombinant); assay: SPR (BIAcore)
[5] = molecular target: T3, recombinant human CD25 (IL2-Rα) (human, UniProt P01589 22-213, limits assumed); assay: SPR (BIAcore), antibody captured by anti-human Fc, soluble human CD25 as analyte, n=3
T3 construct: Bought protein; also called recombinant human IL2-Rα; recombinant soluble human CD25
T3 sequence (looked up): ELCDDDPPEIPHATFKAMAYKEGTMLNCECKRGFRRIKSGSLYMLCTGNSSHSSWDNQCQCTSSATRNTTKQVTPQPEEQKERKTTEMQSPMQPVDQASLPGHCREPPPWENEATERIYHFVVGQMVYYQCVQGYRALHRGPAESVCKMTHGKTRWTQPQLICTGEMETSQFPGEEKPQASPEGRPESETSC
Protocol: For this capture approach, 30 μg/ml of GAHFc was immobilized to achieve a high response unit (20,000 RU) on each flow cell on the Research-grade CMS sensor chip using the BIAcore amine coupling reagents (N-ethyl-N′-dimethylamino-propylcarbodiimide, EDC; N-hydroxysuccinimide, NHS; and ethanolamine HCl, pH 8.5). […] A 3 min association phase of CD25 was followed by a 15 min injection of HBS-P running buffer (10 mM HEPES, 150 mM sodium chloride, 0.005% P-20 surfactant, pH 7.4) to monitor dissociation for each binding cycle, with a different CD25 concentration per cycle. The surface was regenerated with 20 mM HCl at 100 μl/min flow rate at the end of each cycle. […] Double referencing was applied in each analysis to eliminate background responses from reference surface and buffer only control (0 nM). […] Each set of experiments was performed three times to assess the standard deviation of the data.
Modified antibody proteins were tested for binding affinity using a surface plasmon resonance assay format in a BIAcore device. […] Recombinant soluble human CD25 was flowed over the sensor chip and changes in mass were detected.

[6] = molecular target: T3, recombinant human CD25 (IL2-Rα); assay: SPR (BIAcore), affinity benchmarked to DAC-HYP, n=3
Protocol: Double referencing was applied in each analysis to eliminate background responses from reference surface and buffer only control (0 nM). […] Each set of experiments was performed three times to assess the standard deviation of the data.
Modified antibody proteins were tested for binding affinity using a surface plasmon resonance assay format in a BIAcore device. […] Recombinant soluble human CD25 was flowed over the sensor chip and changes in mass were detected. The data was interpreted to yield kₐ, kd and KD values for all the proteins tested.

[7] = molecular target: T3, recombinant human CD25 (IL2-Rα); assay: direct-binding ELISA on plate-coated recombinant human IL2-Rα; EC50 benchmarked to DAC-HYP
Protocol: MaxiSorp ELISA plates (Nunc Nalge International) were coated overnight at 4° C. with 100 μl/well of a 50 ng/ml solution of recombinant human IL2-Rα (R&D Systems or PeproTech, Inc., Rocky Hill, N.J.) in DPBS (Invitrogen Corporation), washed with Wash Buffer (PBS containing 0.1% Tween 20), and blocked for 30 min at room temperature with 200 μl/well of SuperBlock Blocking Buffer in TBS (Pierce Chemical Company). After washing with Wash Buffer, test antibodies (starting at 4 μg/ml and serially diluted 3-fold) in 100 μl/well of ELISA buffer (PBS containing 1% BSA and 0.1% Tween 20) were added in duplicate. After incubating the plates for 1 hr at room temperature, and washing with Wash Buffer, bound antibodies were detected using 100 μl/well of a 1:20,000 dilution of HRP-conjugated goat anti-human IgG (Southern Biotechnology Associates, Inc.) in ELISA buffer. After incubating for 1 hr at room temperature, and washing with Wash Buffer, color development was performed by adding 150 μl/well of TMB Peroxidase Substrate/Peroxidase Solution B (KPL, Inc.). After incubating for 8 min at room temperature, color development was stopped by adding 50 μl/well of 2 N sulfuric acid. Absorbance was read at 450 nm.

human CD25 [8] = molecular target: T4, human CD25 (human, UniProt P01589 22-213, limits assumed); assay: competition ELISA vs biotinylated daclizumab, fold over wild type
T4 construct: Recombinant soluble human CD25, coated on plates (ELISA) or injected over captured antibody (BIAcore); also called hCD25; IL2-R alpha
T4 sequence (looked up): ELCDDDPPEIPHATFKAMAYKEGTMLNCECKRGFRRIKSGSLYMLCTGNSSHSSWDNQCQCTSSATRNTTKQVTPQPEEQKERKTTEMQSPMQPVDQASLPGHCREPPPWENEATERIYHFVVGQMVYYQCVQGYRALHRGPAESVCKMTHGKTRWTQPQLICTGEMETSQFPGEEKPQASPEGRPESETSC

human CD25 [9] = molecular target: T4, human CD25; assay: SPR (BIAcore)
CD25 (recombinant) [10] = molecular target: T2, CD25 (recombinant); assay: ELISA, relative to wild type

EC50 [1]: 0.47 µg/mL
B1: NuhuTacVH with daclizumabVL (antibody, V domains shown)
VH: EVQLVQSGAEVKKPGASVKVSCKASGYTFTSYRMHWVRQAPGQGLEWIGYINPSTGYTEYNQKFKDKATMTADKSISTAYMELSSLRSEDTAVYYCARGGGVFDYWGQGTLVTVSS
VL: DIQMTQSPSTLSASVGDRVTITCSASSSISYMHWYQQKPGKAPKLLIYTTSNLASGVPARFSGSGSGTEFTLTISSLQPDDFATYYCHQRSTYPLTFGQGTKVEVK
notes: combination antibody

EC50 [1]: 0.49 µg/mL
EC50 [2]: 0.71 µg/mL
B2: NuhuTac (antibody, V domains shown)
VH: EVQLVQSGAEVKKPGASVKVSCKASGYTFTSYRMHWVRQAPGQGLEWIGYINPSTGYTEYNQKFKDKATMTADKSISTAYMELSSLRSEDTAVYYCARGGGVFDYWGQGTLVTVSS
VL: EIVLTQSPATLSLSPGERATLTCSASSSISYMHWFQQKPGQAPRLLIYTTSNLASGIPARFSGSGSGTDYTLTISSLEPEDFAVYYCHQRSTYPLTFGQGTKVEIK
notes: rehumanization of mouse anti-Tac on frameworks R3.5H5G (VH) and ka3d1 (VL); also called rehumanized anti-Tac; rehumanized antibody

ELISA (wt = 1) (CD25 (recombinant) [3]): 1.32 fold (wt = 1)
Fold improvement (KD) (CD25 (recombinant) [4]): 0.9 fold over wild type
Kd (CD25 (recombinant) [4]): 0.597 nM
koff (CD25 (recombinant) [4]): 0.000222 s⁻¹
kon (CD25 (recombinant) [4]): 372000 M⁻¹ s⁻¹
B3: daclizumab variant S76 (antibody, IgG1, name in Kabat numbering, V domains shown)
VH: QVQLVQSGAEVKKPGSSVKVSCKASGYTFTSYRMHWVRQAPGQGLEWLGYINPSTGYTEYNQKFKDKATITADESTNTAYMELSSLRSEDTAVYYCARGGGVFDYWGQGTLVTVSS
VL: DIQMTQSPSTLSASVGDRVTITCSASSSISYMHWYQQKPGKAPKLLIYTTSNLASGVPARFSGSGSGTEFTLTISSLQPDDFATYYCHQRSTYPLTFGQGTKVEVK
notes: IgG1; Kabat positions; also called I48L; DAC I48L

Kd [5]: 0.597 nM
koff [5]: 0.000222 s⁻¹
kon [5]: 372000 M⁻¹ s⁻¹
Relative % KD [6]: 83%
Relative % Potency [7]: 132%
B4: DAC I48L (antibody, IgG1, name in Kabat numbering, V domains shown)
VH: QVQLVQSGAEVKKPGSSVKVSCKASGYTFTSYRMHWVRQAPGQGLEWLGYINPSTGYTEYNQKFKDKATITADESTNTAYMELSSLRSEDTAVYYCARGGGVFDYWGQGTLVTVSS
VL: DIQMTQSPSTLSASVGDRVTITCSASSSISYMHWYQQKPGKAPKLLIYTTSNLASGVPARFSGSGSGTEFTLTISSLQPDDFATYYCHQRSTYPLTFGQGTKVEVK
notes: E.HAT variant, IgG1/kappa

ELISA (wt = 1) (CD25 (recombinant) [3]): 1.1 fold (wt = 1)
Fold improvement (KD) (CD25 (recombinant) [4]): 1 fold over wild type
Kd (CD25 (recombinant) [4]): 0.493 nM
koff (CD25 (recombinant) [4]): 0.000183 s⁻¹
kon (CD25 (recombinant) [4]): 371000 M⁻¹ s⁻¹
B5: daclizumab variant S78 (antibody, IgG1, name in Kabat numbering, V domains shown)
VH: QVQLVQSGAEVKKPGSSVKVSCKASGYTFTSYRMHWVRQAPGQGLEWVGYINPSTGYTEYNQKFKDKATITADESTNTAYMELSSLRSEDTAVYYCARGGGVFDYWGQGTLVTVSS
VL: DIQMTQSPSTLSASVGDRVTITCSASSSISYMHWYQQKPGKAPKLLIYTTSNLASGVPARFSGSGSGTEFTLTISSLQPDDFATYYCHQRSTYPLTFGQGTKVEVK
notes: IgG1; Kabat positions; also called I48V; DAC I48V

ELISA fold improvement (human CD25 [8]): 3.98 fold
Kd (human CD25 [9]): 0.155 nM
B6: Variant C12 (antibody, name in Kabat numbering, V domains shown)
VH: QVQLVQSGAEVKKPGSSVKVSCKASGYTFTSYRMHWVRQAPGQGLEWIGYISPRRGYTQYNQKFKDKATITADESTNTAYMELSSLRSEDTAVYYCARGGGVFDYWGQGTLVTVSS
VL: DIQMTQSPSTLSASVGDRVTITCSASSSISYMHWYQQKPGKAPKLLIYTTSNLASGVPARFSGSGSGTEFTLTISSLQPDDFATYYCHQRSTYPLTFGQGTKVEVK
notes: Isotype as printed: G1 fa

ELISA (wt = 1) (CD25 (recombinant) [10]): 1.5 fold (wt = 1)
Kd (CD25 (recombinant) [4]): 0.388 nM
B7: daclizumab variant S79 (antibody, IgG1, name in Kabat numbering, V domains shown)
VH: QVQLVQSGAEVKKPGSSVKVSCKASGYTFTSYRMHWVRQAPGQGLEWIGYINPSTGYTEYNQKFKDKATITADKSTNTAYMELSSLRSEDTAVYYCARGGGVFDYWGQGTLVTVSS
VL: DIQMTQSPSTLSASVGDRVTITCSASSSISYMHWYQQKPGKAPKLLIYTTSNLASGVPARFSGSGSGTEFTLTISSLQPDDFATYYCHQRSTYPLTFGQGTKVEVK
notes: IgG1; Kabat positions; also called E73K
